Measured values from paper PMC8184850, “Cryo-EM structure of TFIIH/Rad4–Rad23–Rad33 in damaged DNA opening in nucleotide excision repair” (Nature Communications, 2021).

T1: Full-length Rad4–Rad23 complex (yeast, UniProt P14736 1-754; P32628 1-398)
T1 construct: Rad4 (XPC homologue), yeast; Rad23 (RAD23B homologue), yeast; also called Rad4–23; yeast homologue of XPC–RAD23B
T1 sequence (looked up) 1: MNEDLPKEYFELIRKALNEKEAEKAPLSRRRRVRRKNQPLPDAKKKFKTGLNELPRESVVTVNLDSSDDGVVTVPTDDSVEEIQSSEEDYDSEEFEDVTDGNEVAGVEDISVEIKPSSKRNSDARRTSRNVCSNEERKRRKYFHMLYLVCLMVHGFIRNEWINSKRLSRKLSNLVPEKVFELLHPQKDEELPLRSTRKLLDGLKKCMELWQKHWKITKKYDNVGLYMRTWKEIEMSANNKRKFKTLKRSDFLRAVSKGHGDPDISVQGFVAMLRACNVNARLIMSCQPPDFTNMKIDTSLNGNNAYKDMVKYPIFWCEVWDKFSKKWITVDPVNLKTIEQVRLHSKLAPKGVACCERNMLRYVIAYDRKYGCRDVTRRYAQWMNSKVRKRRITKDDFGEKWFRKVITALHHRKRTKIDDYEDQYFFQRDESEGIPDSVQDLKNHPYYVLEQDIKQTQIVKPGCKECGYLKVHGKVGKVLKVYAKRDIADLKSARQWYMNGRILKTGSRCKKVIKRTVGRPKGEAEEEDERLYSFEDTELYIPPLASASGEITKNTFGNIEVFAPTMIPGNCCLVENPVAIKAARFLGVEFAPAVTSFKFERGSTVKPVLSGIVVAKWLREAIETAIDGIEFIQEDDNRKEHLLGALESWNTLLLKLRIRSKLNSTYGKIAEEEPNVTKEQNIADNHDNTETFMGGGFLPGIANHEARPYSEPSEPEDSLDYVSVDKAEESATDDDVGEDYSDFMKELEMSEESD
T1 sequence (looked up) 2: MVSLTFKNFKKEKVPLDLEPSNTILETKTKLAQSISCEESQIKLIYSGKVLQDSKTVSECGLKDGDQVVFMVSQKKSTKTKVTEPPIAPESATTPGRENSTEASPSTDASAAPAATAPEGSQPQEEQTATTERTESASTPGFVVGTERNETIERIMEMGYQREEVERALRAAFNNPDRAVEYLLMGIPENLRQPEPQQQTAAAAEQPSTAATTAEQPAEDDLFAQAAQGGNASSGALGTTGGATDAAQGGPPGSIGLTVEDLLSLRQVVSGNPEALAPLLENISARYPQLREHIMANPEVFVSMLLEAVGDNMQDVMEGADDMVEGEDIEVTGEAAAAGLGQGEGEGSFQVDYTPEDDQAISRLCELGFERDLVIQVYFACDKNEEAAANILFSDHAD

T2: Rad4 (yeast, UniProt P14736 1-754)
T2 construct: Rad4 (XPC homologue), yeast; Stood in the assays as part of Rad4–Rad23–Rad33; written alone for the contacts of the subunit; also called yeast homologue of XPC; source: Hi5 insect cells, co-expressed with Rad23, purified as the Rad4–Rad23 complex
T2 sequence (looked up): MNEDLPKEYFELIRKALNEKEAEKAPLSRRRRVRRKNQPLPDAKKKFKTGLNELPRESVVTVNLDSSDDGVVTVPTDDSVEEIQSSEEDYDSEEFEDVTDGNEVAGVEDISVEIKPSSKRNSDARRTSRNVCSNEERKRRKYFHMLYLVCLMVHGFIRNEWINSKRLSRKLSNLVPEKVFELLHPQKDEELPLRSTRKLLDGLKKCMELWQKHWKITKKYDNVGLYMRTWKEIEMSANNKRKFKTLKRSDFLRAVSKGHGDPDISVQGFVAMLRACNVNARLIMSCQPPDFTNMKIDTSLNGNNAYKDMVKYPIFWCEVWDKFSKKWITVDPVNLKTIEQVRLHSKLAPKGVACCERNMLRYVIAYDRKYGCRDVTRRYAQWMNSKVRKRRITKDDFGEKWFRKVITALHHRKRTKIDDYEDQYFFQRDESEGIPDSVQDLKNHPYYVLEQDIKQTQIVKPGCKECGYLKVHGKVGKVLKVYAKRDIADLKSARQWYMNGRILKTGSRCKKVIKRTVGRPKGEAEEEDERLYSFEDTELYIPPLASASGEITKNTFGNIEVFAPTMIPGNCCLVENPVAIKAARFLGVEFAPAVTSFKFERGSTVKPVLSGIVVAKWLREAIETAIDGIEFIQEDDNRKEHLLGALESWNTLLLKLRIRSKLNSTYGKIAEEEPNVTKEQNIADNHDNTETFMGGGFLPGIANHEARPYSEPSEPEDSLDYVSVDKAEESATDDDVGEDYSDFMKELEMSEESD

T3: Ssl2 (Saccharomyces cerevisiae, UniProt Q00578 1-843)
T3 construct: Ssl2 (XPB homologue), subunit of yeast coreTFIIH; C-Ssl2 549–776, C-terminal region 771–843 as printed; Stood in the assays as part of coreTFIIH; also called yeast homologue of XPB; source: purified from yeast as a subunit of coreTFIIH
T3 sequence (looked up): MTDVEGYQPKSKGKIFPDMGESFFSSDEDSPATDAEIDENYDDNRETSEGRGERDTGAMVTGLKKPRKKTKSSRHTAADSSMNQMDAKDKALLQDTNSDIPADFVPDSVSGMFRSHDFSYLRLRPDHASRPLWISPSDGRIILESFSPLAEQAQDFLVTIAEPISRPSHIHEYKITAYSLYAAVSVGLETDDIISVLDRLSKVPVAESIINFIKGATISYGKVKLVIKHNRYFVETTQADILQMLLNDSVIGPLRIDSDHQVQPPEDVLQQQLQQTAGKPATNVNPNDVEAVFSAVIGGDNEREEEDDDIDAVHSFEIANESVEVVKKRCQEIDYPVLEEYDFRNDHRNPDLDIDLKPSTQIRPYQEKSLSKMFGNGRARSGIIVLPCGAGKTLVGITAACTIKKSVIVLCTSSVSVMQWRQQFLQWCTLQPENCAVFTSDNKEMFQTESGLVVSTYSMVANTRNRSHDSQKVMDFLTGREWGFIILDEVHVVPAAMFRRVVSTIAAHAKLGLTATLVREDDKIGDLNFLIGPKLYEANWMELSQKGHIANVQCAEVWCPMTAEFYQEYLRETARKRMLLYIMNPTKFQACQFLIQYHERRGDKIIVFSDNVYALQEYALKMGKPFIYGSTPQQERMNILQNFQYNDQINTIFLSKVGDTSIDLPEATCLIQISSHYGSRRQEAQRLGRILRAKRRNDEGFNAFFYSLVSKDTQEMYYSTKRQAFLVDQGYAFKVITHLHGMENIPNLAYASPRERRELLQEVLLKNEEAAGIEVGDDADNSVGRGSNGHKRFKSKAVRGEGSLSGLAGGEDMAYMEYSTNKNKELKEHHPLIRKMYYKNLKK

T4: Tfb2 (yeast, UniProt Q02939 1-513)
T4 construct: Tfb2 (p52 homologue), subunit of yeast coreTFIIH; Tfb2C 412–513 as printed; Stood in the assays as part of coreTFIIH; also called yeast homologue of p52; source: purified from yeast as a subunit of coreTFIIH
T4 sequence (looked up): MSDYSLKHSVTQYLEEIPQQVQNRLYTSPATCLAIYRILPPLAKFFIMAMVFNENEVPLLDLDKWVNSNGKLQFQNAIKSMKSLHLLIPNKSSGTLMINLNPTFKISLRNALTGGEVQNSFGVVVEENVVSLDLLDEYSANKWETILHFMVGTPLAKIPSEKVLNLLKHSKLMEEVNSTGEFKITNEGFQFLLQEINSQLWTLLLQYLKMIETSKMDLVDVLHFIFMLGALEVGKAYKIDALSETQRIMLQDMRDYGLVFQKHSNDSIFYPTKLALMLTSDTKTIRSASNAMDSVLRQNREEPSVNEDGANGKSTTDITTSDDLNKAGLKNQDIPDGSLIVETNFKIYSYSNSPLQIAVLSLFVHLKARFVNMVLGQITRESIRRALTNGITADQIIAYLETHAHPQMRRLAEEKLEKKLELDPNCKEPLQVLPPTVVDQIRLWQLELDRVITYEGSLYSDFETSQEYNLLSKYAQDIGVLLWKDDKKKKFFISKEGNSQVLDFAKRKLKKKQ

B1: Rad33 (natural protein, yeast)
chain: MSKSTNVSYERVELFENPKVPIEVEDEILEKYAESSLDHDMTVNELPRFFKDLQLEPTIWKLVRNEDVIIEGTDVIDFTKLVRCTCQLLILMNNLTVIDDLWSMLIRNCGRDVDFPQVALRDHVLSVKDLQKISNLIGADQSSGTIEMISCATDGKRLFMTYLDFGCVLGKLGYLKM
notes: Rad33 (CETN2 homologue), yeast; plasmid pETDuet-RAD33; also called yeast homologue of CETN2; source: E. coli Rosetta(DE3), purified (HisTrap, Q column)
B2: Tfb5 (natural protein, yeast, UniProt Q3E7C1 1-72, looked up)
chain: MARARKGALVQCDPSIKALILQIDAKMSDIVLEELDDTHLLVNPSKVEFVKHELNRLLSKNIYNPMDEEENQ
notes: Tfb5 (p8 homologue), subunit of yeast coreTFIIH; Stood in the assays as part of coreTFIIH; also called yeast homologue of p8; source: purified from yeast as a subunit of coreTFIIH

Columns and labels:
Conditions in all cases: both partners purified
[1] = target: T1, Full-length Rad4–Rad23 complex; assay: co-sedimentation; 10–40% glycerol gradient (20 mM HEPES, 150 mM potassium acetate, 2 mM magnesium acetate, 4 mM DTT, 2 mM ATP or AMP-PNP), 52,000 rpm 6 h 35 min, 4 °C; Rad4–Rad23–Rad33 pre-assembled on −24*/+24 AAF-DNA, then added to TFIIH; fractions by SDS-PAGE
Rad4 = target: T2, Rad4; assay: cryo-EM structure; coreTFIIH and Rad4–Rad23–Rad33 on −24*/+24 AAF-DNA with ATP, glycerol gradient with glutaraldehyde; Map 1 3.86 Å (TFIIH), Map 2 9.2 Å, Map 3 7.9 Å; Rad4, Rad33 and the Tfb1 PH domain placed by rigid-body docking of known structures or homology models
Ssl2 = target: T3, Ssl2; assay: as above
Tfb2 = target: T4, Tfb2; assay: as above

| Binder | binding result [1] | binding result (Rad4) | binding result (Ssl2) | binding result (Tfb2) |
| --- | --- | --- | --- | --- |
| B1 | binds | binds | binds |  |
| B2 |  |  |  | binds |
